This is an account of results in patent US20060234940A1 (OSI PHARMACEUTICALS, published 2006).

Where no end group is shown, it is not given here. The star is where a group is joined. Thia = thiazolidide, C1CN(*)CS1

Assay [1] addresses T1, recombinant human DP IV, mutation W629A (human, UniProt P27487 37-766).
T1 construct: range 37-766; Same Pichia construct as the wild type, single mutation by site-directed mutagenesis; also called mu 16 DP IV; mu 16
Description: photometric assay, competition with the standard substrate GP-4NA.
Description: (§1) In order to measure the inhibition constant Kᵢ a photometric assay was used The peptides were measured as competitors of the standard substrate GP-4-Nitroanilide. Three different substrate concentrations (0.4 mM to 0.05 mM) were combined with 8 different competitor concentrations (0.5 mM to 2 μM). […] Experiments were carried out under standard conditions: 30° C. in pH 7.6 40 mM HEPES (Sigma-Aldrich) buffer. Nitroaniline production was monitored using a HTS 7000+ microplate reader (PerkinElmer, Überlingen, Germany).

The target in assay [2] is T2, recombinant human DP IV, mutation R560A (human, UniProt P27487 37-766).
T2 construct: range 37-766; Same Pichia construct as the wild type, single mutation by site-directed mutagenesis; also called mu 15 DP IV; mu 15
Described as above.
Description: as §1

For assay [3], the target named is T3, porcine kidney DP IV, wild type (porcine, UniProt P22411 38-766, natively glycosylated (Asn279 among others, as seen in the crystal)).
T3 construct: In the crystal a 2-2-2 symmetric tetramer (dimer of dimers); also called p wt DP IV; p wt
Briefly: MALDI-TOF MS, inhibition of DP IV-catalyzed truncation of the substrate GIP after preincubation with TFTSDY.

For assay [4], the target named is T3, porcine kidney DP IV, wild type. Description: MALDI-TOF MS, inhibition of DP IV-catalyzed truncation of the substrate RANTES1-15 after preincubation with TFTSDY.
Assay [5] has the same target. Description: MALDI-TOF MS, inhibition of DP IV-catalyzed truncation of the substrate GLP-1 after preincubation with TFTSDY.
Assay [6] has the same target. Briefly: MALDI-TOF MS, inhibition of DP IV-catalyzed truncation of the substrate glucagon after preincubation with TFTSDY.
For assay [7] the target is unchanged. Description: MALDI-TOF MS, inhibition of DP IV-catalyzed truncation of the substrate NPY after preincubation with TFTSDY.
The target of another assay is DP IV. Briefly: photometric assay, competition with the standard substrate GP-4-nitroanilide; source of DP IV not stated.
Assay [8] has as its target T3, porcine kidney DP IV, wild type. Briefly: photometric assay, competition with the standard substrate GP-4NA.
Description: as §1

T3 sequence (P22411 38-766): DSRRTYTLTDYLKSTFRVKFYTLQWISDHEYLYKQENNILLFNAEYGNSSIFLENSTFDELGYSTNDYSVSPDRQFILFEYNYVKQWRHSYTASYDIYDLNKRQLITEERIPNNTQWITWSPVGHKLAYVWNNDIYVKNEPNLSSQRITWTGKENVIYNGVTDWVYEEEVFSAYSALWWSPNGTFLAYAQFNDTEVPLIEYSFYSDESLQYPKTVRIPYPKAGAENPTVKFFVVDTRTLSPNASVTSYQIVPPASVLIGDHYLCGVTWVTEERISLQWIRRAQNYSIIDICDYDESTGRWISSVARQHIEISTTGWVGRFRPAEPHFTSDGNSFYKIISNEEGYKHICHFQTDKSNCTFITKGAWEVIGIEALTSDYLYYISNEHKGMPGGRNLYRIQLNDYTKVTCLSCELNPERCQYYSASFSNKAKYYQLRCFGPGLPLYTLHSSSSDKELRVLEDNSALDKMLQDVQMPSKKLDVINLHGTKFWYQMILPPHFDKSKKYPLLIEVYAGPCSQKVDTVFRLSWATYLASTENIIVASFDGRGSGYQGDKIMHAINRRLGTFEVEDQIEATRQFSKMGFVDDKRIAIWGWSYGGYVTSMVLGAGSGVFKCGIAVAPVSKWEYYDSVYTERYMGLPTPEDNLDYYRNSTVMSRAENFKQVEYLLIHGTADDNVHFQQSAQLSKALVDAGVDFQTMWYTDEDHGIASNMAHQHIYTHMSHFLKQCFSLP
T2 sequence (P27487 other isoform, or with tags, fused parts or gaps R560A R560A limits assumed): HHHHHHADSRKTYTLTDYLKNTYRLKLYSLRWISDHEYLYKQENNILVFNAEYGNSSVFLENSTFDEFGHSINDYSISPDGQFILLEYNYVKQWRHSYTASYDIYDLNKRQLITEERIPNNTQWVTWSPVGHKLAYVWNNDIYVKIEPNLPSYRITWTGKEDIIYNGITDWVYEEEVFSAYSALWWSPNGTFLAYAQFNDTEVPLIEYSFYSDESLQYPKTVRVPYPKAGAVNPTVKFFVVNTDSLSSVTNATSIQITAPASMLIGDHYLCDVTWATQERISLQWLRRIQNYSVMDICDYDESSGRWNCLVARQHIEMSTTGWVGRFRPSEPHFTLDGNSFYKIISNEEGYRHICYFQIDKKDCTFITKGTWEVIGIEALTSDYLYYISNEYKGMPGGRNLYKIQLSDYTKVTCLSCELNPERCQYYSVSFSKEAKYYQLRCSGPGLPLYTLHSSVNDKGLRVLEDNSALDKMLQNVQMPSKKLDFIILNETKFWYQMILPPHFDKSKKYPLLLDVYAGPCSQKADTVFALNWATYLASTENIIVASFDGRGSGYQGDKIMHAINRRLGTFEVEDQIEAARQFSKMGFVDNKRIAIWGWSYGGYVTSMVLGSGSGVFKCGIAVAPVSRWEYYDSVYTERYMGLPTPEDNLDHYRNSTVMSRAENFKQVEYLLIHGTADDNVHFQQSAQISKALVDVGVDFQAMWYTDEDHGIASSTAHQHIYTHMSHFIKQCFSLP
T1 sequence (P27487 other isoform, or with tags, fused parts or gaps W629A W629A limits assumed): as the sequence (P27487 other isoform, or with tags, fused parts or gaps R560A R560A limits assumed) above, with A530R, W599A counted along it
Sequence of DP IV (chain, as listed by the source): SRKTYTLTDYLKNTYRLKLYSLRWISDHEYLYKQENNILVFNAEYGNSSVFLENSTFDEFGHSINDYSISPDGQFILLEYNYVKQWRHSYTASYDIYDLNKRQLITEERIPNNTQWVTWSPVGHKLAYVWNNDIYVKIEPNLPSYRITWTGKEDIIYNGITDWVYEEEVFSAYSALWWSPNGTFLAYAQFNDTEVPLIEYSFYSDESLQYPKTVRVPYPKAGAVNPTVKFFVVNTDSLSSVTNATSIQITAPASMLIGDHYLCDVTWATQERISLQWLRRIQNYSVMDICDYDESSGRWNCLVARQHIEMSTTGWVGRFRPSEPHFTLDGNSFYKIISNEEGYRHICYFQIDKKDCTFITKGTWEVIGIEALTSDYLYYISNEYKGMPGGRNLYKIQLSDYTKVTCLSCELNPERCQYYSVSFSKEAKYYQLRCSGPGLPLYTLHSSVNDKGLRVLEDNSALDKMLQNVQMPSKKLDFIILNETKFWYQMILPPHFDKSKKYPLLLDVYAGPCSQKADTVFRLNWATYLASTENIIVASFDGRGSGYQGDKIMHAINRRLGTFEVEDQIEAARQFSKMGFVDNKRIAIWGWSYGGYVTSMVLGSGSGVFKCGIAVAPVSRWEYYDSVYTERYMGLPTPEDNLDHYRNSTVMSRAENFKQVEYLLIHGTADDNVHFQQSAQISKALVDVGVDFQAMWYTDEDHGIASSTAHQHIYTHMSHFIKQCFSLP

B1: Transp 01 (RRLSYSRRRF-E-Thia) (peptide)
peptide: RRLSYSRRRFE-Thia
modifications: also: linkage of decapeptide to Glu not explained
For B1, the Ki (as a rule, a measure of affinity in units of concentration, obtained from inhibition or displacement) in [1] is 85.5 nM; in assay [2], 76.9 nM.

B2: hexapeptide TFTSDY (peptide)
peptide: TFTSDY
notes: also called glucagon5-10; T(5)-F-T-S-D-Y
B2: the Ki in assay [3] worked out at 65.9 µM; in assay [4], 12.3 mM; in assay [5] it was 13.7 µM; in assay [6], 6.8 µM; in assay [7], 17.2 µM; in the assay with DP IV, 710 µM.

B3: PACAP-27 (peptide, UniProt P18509 132-158, looked up)
peptide: HSDGIFTDSYSRYRKQMAVKKYLAAVL
modifications: ends and bridges not checked
notes: range 132-158; also called PACAP(1-27)
Molecule B3 had a Ki in [8] of 54.3 µM.

B4: YAESTF amide (peptide)
peptide: YAESTF-NH2
With B4, the Ki in assay [1] was 1060 nM; in assay [2], 1140 nM.
